Earlier results, collected in article PMC11727785.
Like-named read-outs stand apart in the source and are kept apart here.

Key:
[1] = molecular target: IL-18 receptor complex (Homo sapiens) (UniProt Q13478)
[2] = molecular target: IL-18 receptor alpha chain (Homo sapiens) (UniProt Q13478)
IL-18 (Homo sapiens) [3] = molecular target: IL-18 (Homo sapiens) (UniProt Q14116)
IL-18 (Homo sapiens) [4] = molecular target: IL-18 (Homo sapiens) (UniProt Q14116); experiment: SPR

Sequence of IL-18 (Homo sapiens) (Q14116 37-193): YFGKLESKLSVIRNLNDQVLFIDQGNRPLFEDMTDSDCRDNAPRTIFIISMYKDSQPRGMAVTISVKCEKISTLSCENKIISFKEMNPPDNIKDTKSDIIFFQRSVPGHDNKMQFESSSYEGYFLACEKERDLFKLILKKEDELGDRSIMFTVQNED
Sequence of IL-18 (Q14116 37-193): as above
Sequence of IL-18BP (O95998 31-194): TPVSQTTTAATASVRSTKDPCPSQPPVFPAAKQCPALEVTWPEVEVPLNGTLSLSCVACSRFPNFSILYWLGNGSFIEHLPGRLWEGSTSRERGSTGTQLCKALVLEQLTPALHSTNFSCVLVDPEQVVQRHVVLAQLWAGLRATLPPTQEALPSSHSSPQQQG
Sequence of IL-18 receptor alpha chain (Homo sapiens) (Q13478 19-541): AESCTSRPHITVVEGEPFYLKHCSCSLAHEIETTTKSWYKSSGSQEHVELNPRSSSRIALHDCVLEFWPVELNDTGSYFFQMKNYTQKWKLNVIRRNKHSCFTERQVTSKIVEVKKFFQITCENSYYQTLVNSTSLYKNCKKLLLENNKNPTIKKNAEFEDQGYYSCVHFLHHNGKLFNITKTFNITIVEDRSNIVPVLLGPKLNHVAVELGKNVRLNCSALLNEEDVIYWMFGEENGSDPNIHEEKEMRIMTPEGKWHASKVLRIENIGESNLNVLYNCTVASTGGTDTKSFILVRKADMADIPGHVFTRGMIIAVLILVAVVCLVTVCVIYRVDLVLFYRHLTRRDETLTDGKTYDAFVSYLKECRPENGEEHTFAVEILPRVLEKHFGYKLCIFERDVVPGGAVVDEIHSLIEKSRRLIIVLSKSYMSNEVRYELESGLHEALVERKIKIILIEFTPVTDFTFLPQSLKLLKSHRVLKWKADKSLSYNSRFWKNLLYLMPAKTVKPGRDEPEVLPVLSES
Sequence of IL-18 receptor complex (Homo sapiens) (Q13478 19-541, chain 1 of 2): as the sequence (Q13478 19-541) above
Sequence of IL-18 receptor complex (Homo sapiens) (O95256 20-599, chain 2 of 2, further chain): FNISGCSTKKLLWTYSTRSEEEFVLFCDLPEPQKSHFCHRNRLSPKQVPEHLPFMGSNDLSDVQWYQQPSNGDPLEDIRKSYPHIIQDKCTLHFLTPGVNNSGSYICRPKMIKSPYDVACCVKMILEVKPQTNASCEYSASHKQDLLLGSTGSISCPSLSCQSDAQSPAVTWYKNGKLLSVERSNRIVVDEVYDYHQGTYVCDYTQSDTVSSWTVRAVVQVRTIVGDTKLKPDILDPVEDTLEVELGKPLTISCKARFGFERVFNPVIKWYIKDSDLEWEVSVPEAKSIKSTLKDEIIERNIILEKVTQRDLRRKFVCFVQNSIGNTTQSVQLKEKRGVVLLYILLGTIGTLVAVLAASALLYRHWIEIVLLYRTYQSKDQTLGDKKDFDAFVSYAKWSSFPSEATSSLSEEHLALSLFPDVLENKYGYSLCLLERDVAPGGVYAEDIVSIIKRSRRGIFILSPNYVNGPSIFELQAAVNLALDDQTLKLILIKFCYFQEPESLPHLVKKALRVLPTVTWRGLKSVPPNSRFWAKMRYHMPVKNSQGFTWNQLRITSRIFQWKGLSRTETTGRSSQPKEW

| Substance | Kd [1] | Kd [2] | Kd (IL-18 (Homo sapiens) [3]) | Kd (IL-18 (Homo sapiens) [4]) |
| --- | --- | --- | --- | --- |
| IL-18 (from UniProt Q14116) | 0.4 nM | 18.5 nM | – | – |
| IL-18BP (from UniProt O95998) | – | – | 0.05 nM | 0.4 nM |
